Assay results reported in patent US20080292704A1 (published 2008).

Assays:
HSA1R4 [1] = target: T1, HSA1R4 (human, UniProt P02768 25-221); test: ELISA on coated recombinant receptor (2 µg/mL), HRPO-Protein G detection
T1 construct: range 1-197; also called R4 ligand; HCH2 polymer

HSA1Fc = target: T2, HSA1Fc (human, UniProt P02768 25-221); test: ELISA on coated recombinant receptor, Protein G-HRPO detection
T2 construct: range 1-197; also called Fc fusion protein; Ig fusion protein

HSA1R4 [2] = target: T1, HSA1R4; test: ELISA on coated recombinant receptor (4 µg/mL), HRPO-Protein G detection

T2 sequence (P02768 other isoform, or with tags, fused parts or gaps): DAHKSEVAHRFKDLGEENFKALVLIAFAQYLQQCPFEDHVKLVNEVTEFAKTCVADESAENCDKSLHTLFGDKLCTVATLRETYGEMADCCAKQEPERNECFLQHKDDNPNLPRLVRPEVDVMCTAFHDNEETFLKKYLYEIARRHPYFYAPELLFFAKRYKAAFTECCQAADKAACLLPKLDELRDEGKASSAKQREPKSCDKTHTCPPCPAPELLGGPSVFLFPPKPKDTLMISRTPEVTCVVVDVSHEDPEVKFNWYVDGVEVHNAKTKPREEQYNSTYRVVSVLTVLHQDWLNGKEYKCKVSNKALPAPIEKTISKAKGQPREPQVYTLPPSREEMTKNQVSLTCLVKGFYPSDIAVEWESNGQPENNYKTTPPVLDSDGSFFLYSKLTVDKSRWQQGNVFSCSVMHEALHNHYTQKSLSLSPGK
T1 sequence (P02768 other isoform, or with tags, fused parts or gaps): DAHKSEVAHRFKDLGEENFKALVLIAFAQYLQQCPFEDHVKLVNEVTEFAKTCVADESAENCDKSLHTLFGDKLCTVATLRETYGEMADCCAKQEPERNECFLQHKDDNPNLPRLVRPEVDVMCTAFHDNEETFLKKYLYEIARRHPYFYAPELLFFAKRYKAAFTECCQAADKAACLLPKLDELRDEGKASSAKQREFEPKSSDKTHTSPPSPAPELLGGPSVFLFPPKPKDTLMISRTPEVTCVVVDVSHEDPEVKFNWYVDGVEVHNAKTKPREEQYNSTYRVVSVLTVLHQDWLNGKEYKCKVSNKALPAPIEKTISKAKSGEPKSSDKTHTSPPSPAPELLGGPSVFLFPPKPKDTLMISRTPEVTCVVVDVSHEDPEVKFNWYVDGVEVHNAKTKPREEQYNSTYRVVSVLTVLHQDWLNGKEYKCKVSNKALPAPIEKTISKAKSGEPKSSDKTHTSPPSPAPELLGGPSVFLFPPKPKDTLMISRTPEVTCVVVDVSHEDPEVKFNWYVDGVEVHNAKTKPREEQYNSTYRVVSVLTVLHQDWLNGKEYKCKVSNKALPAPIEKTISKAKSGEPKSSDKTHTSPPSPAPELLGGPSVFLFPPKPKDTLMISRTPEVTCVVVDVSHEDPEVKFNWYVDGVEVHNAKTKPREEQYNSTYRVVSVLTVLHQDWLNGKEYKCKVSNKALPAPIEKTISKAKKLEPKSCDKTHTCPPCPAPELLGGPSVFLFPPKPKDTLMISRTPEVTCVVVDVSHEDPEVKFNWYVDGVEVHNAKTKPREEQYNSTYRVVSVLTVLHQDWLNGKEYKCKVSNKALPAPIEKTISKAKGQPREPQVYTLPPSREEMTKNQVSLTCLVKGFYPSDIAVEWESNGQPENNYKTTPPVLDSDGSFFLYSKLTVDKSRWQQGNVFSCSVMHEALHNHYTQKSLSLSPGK

B1: recombinant FcγRI ligand binding domain, 6xHis tagged (receptor)
chain: QVDTTKAVITLQPPWVSVFQEETVTLHCEVLHLPGSSSTQWFLNGTATQTSTPSYRITSASVNDSGEYRCQRGLSGRSDPIQLEIHRGWLLLQVSSRVFTEGEPLALRCHAWKDKLVYNVLYYRNGKAFKFFHWNSNLTILKTNISHNGTYHCSGMGKHRYTSAGISVTVKELFPAPVLNASVTSPLLEGNLVTLSCETKLLLQRPGLQLYFSFYMGSKTLRGRNTSSEYQILTARREDSGLYWCEAATEDGNVLKRSPELELQVLGLQLPTPVWFH
binding result (HSA1R4 [1]): binds | binding result (HSA1Fc): binds

B2: recombinant FcγRIIb ligand binding domain, 6xHis tagged (receptor)
chain: TPAAPPKAVLKLEPQWINVLQEDSVTLTCRGTHSPESDSIQWFHNGNLIPTHTQPSYRFKANNNDSGEYTCQTGQTSLSDPVHLTVLSEWLVLQTPHLEFQEGETIVLRCHSWKDKPLVKVTFFQNGKSKKFSRSDPNFSIPQANHSHSGDYHCTGNIGYTLYSSKPVTITVQAP
binding result (HSA1Fc): no binding (tested: 20 ug/mL (highest concentration tested)) | binding result (HSA1R4 [2]): binds

B3: recombinant FcγRIIa ligand binding domain, 6xHis tagged (receptor)
chain: QAAAPPKAVLKLEPPWINVLQEDSVTLTCQGARSPESDSIQWFHNGNLIPTHTQPSYRFKANNNDSGEYTCQTGQTSLSDPVHLTVLSEWLVLQTPHLEFQEGETIMLRCHSWKDKPLVKVTFFQNGKSQKFSHLDPTFSIPQANHSHSGDYHCTGNIGYTLFSSKPVTITVQVPSMGSSSPMG
binding result (HSA1Fc): no binding (tested: 20 ug/mL (highest concentration tested))
